Patent publication US12226454B2, “Pharmaceutical compositions and use thereof for relieving anticancer drug resistance and enhancing sensitivity of anticancer drug” (Rise Biopharmaceuticals Inc., priority 2015, dated 2025)

B1: RISE P-8: chemokine analogue peptide, SEQ ID NO: 1; analogous protein of CXCL8 (IL-8), antagonist of CXCR1 and CXCR2 (protein)
chain: GSKELRCQCIRSYSKPFHPKFIKELRVIPASQFCANTEIIVKLSDGRELCLDPKENWVQRVVEKFLKRAENS
modifications: RISE P-8
notes: analogous protein of CXCL8 (IL-8), antagonist of CXCR1 and CXCR2

What was measured:
[1] = system: IL-8, CXCR1 and CXCR2 mRNA in HCC827GR; assay: Real-time PCR gene expression in HCC827GR; format: cell-based, human
Excerpt: (§1) 18 s was used as an internal loading control.
That is to say, RISE P-8 can compete with IL-8 and attenuate its feedback to regulate gene expression of IL-8, CXCR1 and CXCR2 decreased.

[2] = system: IL-8, CXCR1 and CXCR2 mRNA in PC9GR; assay: Real-time PCR gene expression in PC9GR; format: cell-based, human; conditions: 5 μM Gefitinib, 24 hrs
Excerpt: as §1
[…]. […] That is to say, RISE P-8 can compete with IL-8 and attenuate its feedback to regulate gene expression of IL-8, CXCR1 and CXCR2 decreased.

IL-8 in PC9 = assay: IL-8 protein expression in 3D (suspended) culture; format: cell-based, human; conditions: PC9, RISE P-8 200 ng/ml, 24 hrs, 2D vs suspended
Description: (§2) Cells underwent serum-free 16-18 hr and suspended into 10^6 cells/mL in growth medium. 2×10^6 cells/well were seeded in coating/non-coating 6 well plates and treated with/without RISE P-8 (200 ng/ml) for 24 hrs.

IL-8 in PC9GR = assay: IL-8 protein expression in 3D (suspended) culture; format: cell-based, human; conditions: RISE P-8 200 ng/ml, 24 hrs, 2D vs suspended
Description: as §2

PC9GR [3] = assay: Colony formation assay; format: cell-based, human; conditions: RISE P-8 200 ng/mL with Gefitinib 5 μM, vs control group and IL-8 group
Description: (§3) The colony formation assay was also performed to evaluate cell proliferation.

HCC827GR [4] = assay: Colony formation assay; format: cell-based, human; conditions: RISE P-8 200 ng/mL with Gefitinib 5 μM, vs control group and IL-8 group
Description: as §3

PC9GR [5] = assay: Matrigel transwell invasion assay; format: cell-based, human
Description: (§4) The invasion ability of cell was performed by using 8 μm pore size transwell (Corning FluoroBlok™). The transwell insert was coated with 60 μl matrigel (300 μg/ml in serum-free medium, BD Bioscience) overnight at 37° C. in 5% CO2 atmosphere. 2.5×10^4 cells in 0.2 mL of serum-free growth medium were seeded into the upper chamber coated with matrigel and then treated with drugs IL-8 (100 ng/ml) with/without RISE P-8 (200 ng/ml). After incubation for 24 hrs at 37° C. in 5% CO2, membrane of upper chamber was fixed with methanol and stained with propidium iodide (PI). The invasive cells in the bottom of membrane were imaged and counted by using an inverted fluorescence microscope (Observer.Z1, Zeiss) in five random fields of each specimen (magnification, ×100).

HCC827GR [6] = assay: Matrigel transwell invasion assay; format: cell-based, human
Description: as §4

[7] = system: LL/2 cells (Lewis lung carcinoma); assay: Matrigel transwell invasion assay; format: cell-based, mouse; conditions: RISE P-8 200 ng/ml, 24 hr
Description: Lewis lung carcinoma (LL/2) is a cell line established from the lung of a C57BL mouse bearing a tumor resulting from an implantation of primary Lewis lung carcinoma.
Please refer to FIG. 13A and FIG. 13B, the present invention also represented invasion of LL/2 cells (Louis lung carcinoma) treated with CXCL8, MIP-2 or RISE P-8. The character of LL/2 cancer cell is very prone to invasion into lung and grows rapidly. The LL/2 cells were seeded onto Matrigel-coated polycarbonate filters to analyze their invasive potentials. The cells were then incubated for 24 hr in chambers and were analyzed by staining PI and counted under a microscope. Representative fields of invasive cells on the transwell membrane (at 100× magnification) and the invasion rate were shown. The LL/2 cells treated with CXCL8 (100 ng/ml), RISE P-8 (200 ng/ml), or MIP-2 (50 ng/ml) respectively. […] MIP-2 is the CXCL8 homologues in murine.

human neutrophil = assay: Modified Boyden chamber neutrophil chemotaxis to CXCL8; format: cell-based; conditions: CXCL8 combined with RISE P-8 in lower compartment
Description: Please refer to FIG. 5, neutrophil chemotaxis was assessed using modified Boyden chamber microchemotaxis assays. The CXCL8 alone or combined with RISE P-8, were placed in the lower compartment of the Boyden chamber wells and purified neutrophil in the upper compartment. The migrated neutrophil were lysed and detected. The percentages of neutrophil migration were assessed and presented with Chemotaxis Index (CI) value. That is to say, CI=(intensityRISE P-8−intensityHBSS)/(intensityCXCL8−intensityHBSS)×100%.

[8] = IL-8 100 ng/mL + RISE P-8 200 ng/mL vs IL-8 group
[9] = RISE P-8 200 ng/mL, Gefitinib 5 μM, 24 hrs, vs control group

Row | Molecule | IL-8, CXCR1 and CXCR2 mRNA expression ([1]; 5 μM Gefitinib, 24 hrs) | CXCR1 and CXCR2 mRNA expression ([1]; gefitinib 5 μM, 24 hours) | IL-8 mRNA expression ([1]; gefitinib 5 μM, 24 hours) | IL-8, CXCR1 and CXCR2 mRNA expression [2] | IL-8 protein expression (autocrine secretion) (IL-8 in PC9) | IL-8 protein expression (autocrine secretion) (IL-8 in PC9GR) | colony formation rate (PC9GR [3]) | colony formation rate (HCC827GR [4]) | invasion rate, IL-8 stimulated (PC9GR [5]; [8]) | invasion rate (PC9GR [5]; [9]) | invasion rate, IL-8 stimulated (HCC827GR [6]; [8]) | invasion rate (HCC827GR [6]; [9]) | invasion rate, CXCL8 stimulated ([7]; LL/2, CXCL8 100 ng/ml) | number of invasive cells, MIP-2 induced ([7]; LL/2, MIP-2 50 ng/ml) | neutrophil chemotaxis (Chemotaxis Index) (human neutrophil)
1 | COc1cc2ncnc(Nc3ccc(F)c(Cl)c3)c2cc1OCCCN1CCOCC1 [Gefitinib] | significantly enhanced | increased | increased | significantly enhanced |  |  |  |  |  |  |  |  |  |  | 
2 | B1 |  |  |  |  | significantly attenuate IL-8 autocrine only in suspended culture | significantly attenuate IL-8 autocrine only in suspended culture | slow down significantly | slow down significantly | prevent significantly invasion rate | decreases invasion rate | prevent significantly invasion rate | decreases invasion rate | significantly suppressed CXCL8 stimulated cell invasion | significantly decreased the number of invasive cells | effectively antagonize neutrophil response to CXCL8
